The values below are quoted from earlier work in paper PMC4452390.

The target of this data set is EGFR (Homo sapiens) (UniProt P00533).

The Kd is the concentration at which binding is half-saturated. EGF (from UniProt P01133): the Kd is 3 nM.
